Results reported in the Immune Epitope Database (IEDB).

Key:
HLA-A*02:01 [1] = assay: IEDB peptide-MHC binding, purified MHC/competitive/radioactivity; filed as Kd, often an IC50 or EC50 that approximates it; ≥ and ≤ were set here for values at or beyond the usual limits of such assays
HLA-A*02:17 = assay: as above
HLA-A*24:02 = assay: IEDB peptide-MHC binding, purified MHC/competitive/fluorescence; ≥ and ≤ were set here for values at or beyond the usual limits of such assays
HLA-B*15:01 [2] = assay: as above
HLA-B*15:01 [3] = assay: IEDB peptide-MHC binding, purified MHC/competitive/radioactivity; filed as Kd, often an IC50 or EC50 that approximates it; ≥ and ≤ were set here for values at or beyond the usual limits of such assays
HLA-A*02:01 [4] = assay: IEDB peptide-MHC binding, purified MHC/competitive/fluorescence; ≥ and ≤ were set here for values at or beyond the usual limits of such assays
HLA-A*02:03 = assay: IEDB peptide-MHC binding, purified MHC/competitive/radioactivity; filed as Kd, often an IC50 or EC50 that approximates it; ≥ and ≤ were set here for values at or beyond the usual limits of such assays
HLA-A*02:06 = assay: as above
HLA-A*01:01 [5] = assay: IEDB peptide-MHC binding, purified MHC/competitive/fluorescence; filed as Kd, often an IC50 or EC50 that approximates it; ≥ and ≤ were set here for values at or beyond the usual limits of such assays
HLA-B*35:01 = assay: IEDB peptide-MHC binding, purified MHC/competitive/radioactivity; filed as Kd, often an IC50 or EC50 that approximates it; ≥ and ≤ were set here for values at or beyond the usual limits of such assays
HLA-B*57:01 = assay: IEDB peptide-MHC binding, purified MHC/direct/fluorescence; filed as Kd, often an IC50 or EC50 that approximates it; ≥ and ≤ were set here for values at or beyond the usual limits of such assays; conditions: source organism: Burkholderia thailandensis
HLA-B*58:01 = assay: as above; conditions: source organism: Burkholderia thailandensis
HLA-B*07:02 = assay: IEDB peptide-MHC binding, purified MHC/competitive/radioactivity; filed as Kd, often an IC50 or EC50 that approximates it; ≥ and ≤ were set here for values at or beyond the usual limits of such assays
HLA-B*51:01 = assay: as above
HLA-B*53:01 = assay: as above
HLA-B*54:01 = assay: as above
HLA-A*03:01 = assay: IEDB peptide-MHC binding, purified MHC/competitive/fluorescence; filed as Kd, often an IC50 or EC50 that approximates it; ≥ and ≤ were set here for values at or beyond the usual limits of such assays; conditions: source organism: Salmonella enterica subsp. enterica serovar Typhi
HLA-B*15:01 [6] = assay: as above; conditions: source organism: Salmonella enterica subsp. enterica serovar Typhi
HLA-A*01:01 [7] = assay: IEDB peptide-MHC binding, purified MHC/competitive/radioactivity; filed as Kd, often an IC50 or EC50 that approximates it; ≥ and ≤ were set here for values at or beyond the usual limits of such assays; conditions: source organism: Dengue virus 4 Philippines/H241/1956
HLA-B*08:01 = assay: as above; conditions: source organism: Dengue virus 1 Brazil/97-11/1997
HLA-A*11:01 = assay: IEDB peptide-MHC binding, purified MHC/competitive/fluorescence; ≥ and ≤ were set here for values at or beyond the usual limits of such assays; conditions: source organism: Vaccinia virus WR
HLA-A*32:01 = assay: IEDB peptide-MHC binding, purified MHC/competitive/radioactivity; filed as Kd, often an IC50 or EC50 that approximates it; ≥ and ≤ were set here for values at or beyond the usual limits of such assays; conditions: source organism: Vaccinia virus WR
[8] = source organism: Dengue virus 3 Sri Lanka/1266/2000
[9] = source organism: Vaccinia virus WR
[10] = source organism: Zaire ebolavirus
[11] = source organism: Dengue virus 1 Brazil/97-11/1997
[12] = source organism: Dengue virus 2 Jamaica/1409/1983
[13] = source organism: Dengue virus 1 Singapore/S275/1990
[14] = source organism: Vaccinia virus Copenhagen
[15] = source organism: SARS coronavirus Tor2
[16] = source organism: Triticum aestivum
[17] = source organism: Dengue virus 4 Philippines/H241/1956
[18] = source organism: Dengue virus 1 Nauru/West Pac/1974

VLLLITHYAI gave a Kd (HLA-A*02:01 [1]; [8]) of 4.62 nM and a Kd (HLA-A*02:17; [8]) of 1050 nM.
IEILNTIQF gave an IC50 (HLA-A*24:02; [9]) of no less than 310000 nM and an IC50 (HLA-B*15:01 [2]; [9]) of no less than 139000 nM.
ISIKVKNHI gave a Kd (HLA-B*15:01 [3]; [9]) of 5600 nM.
IMASENSSA gave an IC50 (HLA-A*02:01 [4]; [10]) of 2480 nM and an IC50 (HLA-B*15:01 [2]; [10]) of no less than 106000 nM.
In the case of LVHQVFGTAY, the Kd (HLA-B*15:01 [3]; [11]) is reported as 7.15 nM.
For NIAFLDESF, the Kd (HLA-B*15:01 [3]; [9]) was 822 nM.
Sequence LIHQGMHMV has an IC50 (HLA-A*02:01 [4]; [10]) of 443 nM and an IC50 (HLA-B*15:01 [2]; [10]) of no less than 87600 nM.
FLIDGPETA showed a Kd (HLA-A*02:01 [1]; [12]) of 17.4 nM, a Kd (HLA-A*02:03; [12]) of 12.8 nM and a Kd (HLA-A*02:06; [12]) of 377 nM. For the same sequence, the Kd (HLA-A*02:17; [12]) was 1680 nM.
Work on TLTAALLLLV yielded a Kd (HLA-A*02:01 [1]; [12]) of 10.8 nM, a Kd (HLA-A*02:03; [12]) of 4.94 nM and a Kd (HLA-A*02:06; [12]) of 77.7 nM. For the same sequence, the Kd (HLA-A*02:17; [12]) was 7430 nM.
LRIQSLMEM was tested, and the IC50 (HLA-B*15:01 [2]; source organism: Vaccinia virus) was no less than 663000 nM.
Work on AQMWTLMYF yielded a Kd (HLA-A*02:06; [12]) of 2.75 nM and a Kd (HLA-B*15:01 [3]; [12]) of 0.725 nM.
In the case of VLDDGIYRI, the Kd (HLA-A*02:01 [1]; [13]) is reported as 5.44 nM and the Kd (HLA-A*02:17; [13]) is reported as 585 nM.
Work on RMNVFNGHL yielded a Kd (HLA-B*15:01 [3]; [14]) of 28 nM.
Sequence STSADQQSLY has a Kd (HLA-A*01:01 [5]; source organism: Influenza A virus (A/Swine/Indiana/9K035/99 (H1N2))) of 18.7 nM.
Sequence LISIRILYY has a Kd (HLA-B*15:01 [3]; [14]) of 144 nM.
With MMATIGIAL the Kd (HLA-A*02:01 [1]; [12]) was 5.19 nM, the Kd (HLA-A*02:03; [12]) was 5.67 nM and the Kd (HLA-A*02:17; [12]) was 3430 nM. The Kd (HLA-B*35:01; [12]) was 1110 nM.
Sequence WADMPLHQW has a Kd (HLA-B*57:01) of 469 nM and a Kd (HLA-B*58:01) of 9 nM.
YIILFILFF showed a Kd (HLA-B*15:01 [3]; [9]) of 5240 nM.
With SLAAIANQAV the Kd (HLA-A*02:03; source organism: Dengue virus 3 Martinique/1243/1999) was 6.25 nM and the Kd (HLA-A*02:17; source organism: Dengue virus 3 China/80-2/1980) was 122 nM.
Sequence RPDTRYVLM has a Kd (HLA-B*07:02; [15]) of 15.4 nM, a Kd (HLA-B*35:01; [15]) of 1990 nM and a Kd (HLA-B*51:01; [15]) of 908 nM. The Kd (HLA-B*53:01; [15]) was 4850 nM and the Kd (HLA-B*54:01; [15]) was 1580 nM.
Sequence FTAMQALDY has a Kd (HLA-A*01:01 [5]; source organism: Salmonella enterica subsp. enterica serovar Typhi) of 1.6 nM, a Kd (HLA-A*03:01) of no less than 20000 nM and a Kd (HLA-B*15:01 [6]) of 98.6 nM.
In the case of SPLTLLIKTL, the Kd (HLA-B*07:02; [9]) is reported as 1120 nM, the Kd (HLA-B*35:01; [9]) is reported as no less than 69900 nM and the Kd (HLA-B*51:01; [9]) is reported as no less than 57300 nM. The Kd (HLA-B*53:01; [9]) was no less than 30000 nM and the Kd (HLA-B*54:01; [9]) was no less than 69900 nM.
QPLQQYPL was tested, and the Kd (HLA-B*07:02; [16]) was 8450 nM, the Kd (HLA-B*35:01; [16]) was no less than 36100 nM and the Kd (HLA-B*51:01; [16]) was 1450 nM. For the same sequence, the Kd (HLA-B*53:01; [16]) was no less than 22400 nM and the Kd (HLA-B*54:01; [16]) was no less than 87700 nM.
For EPLSPDTCL, the Kd (HLA-B*07:02; [9]) was 10500 nM, the Kd (HLA-B*35:01; [9]) was 522 nM and the Kd (HLA-B*51:01; [9]) was 211 nM. For the same sequence, the Kd (HLA-B*53:01; [9]) was 189 nM and the Kd (HLA-B*54:01; [9]) was no less than 78100 nM.
Sequence HPRHYATIM has a Kd (HLA-B*07:02; source organism: Variola virus) of 1.56 nM, a Kd (HLA-B*35:01; source organism: Variola virus) of 153 nM and a Kd (HLA-B*51:01; source organism: Variola virus) of 19100 nM. For the same sequence, the Kd (HLA-B*53:01; source organism: Variola virus) was 17200 nM and the Kd (HLA-B*54:01; source organism: Variola virus) was 18200 nM.
MSRGYFEHM showed a Kd (HLA-B*15:01 [3]; [9]) of 30.8 nM.
With FLMTATLED the IC50 (HLA-A*02:01 [4]; source organism: Variola virus) was 2590 nM, the IC50 (HLA-A*24:02; source organism: Variola virus) was no less than 78300 nM and the IC50 (HLA-B*15:01 [2]; source organism: Variola virus) was 28600 nM.
In the case of LSCSVCNSL, the Kd (HLA-B*15:01 [3]; [9]) is reported as 386 nM.
In the case of FLEFEALGFL, the Kd (HLA-A*01:01 [7]) is reported as 3230 nM, the Kd (HLA-A*02:01 [1]; [17]) is reported as 28.1 nM and the Kd (HLA-A*02:17; [17]) is reported as 107 nM.
In the case of LLFKTSAGV, the Kd (HLA-A*02:01 [1]; [18]) is reported as 18.6 nM, the Kd (HLA-A*02:03; [11]) is reported as 12 nM and the Kd (HLA-A*02:17; [18]) is reported as 126 nM.
Work on HQLWTTLLSL yielded a Kd (HLA-A*02:06; [11]) of 91.8 nM, a Kd (HLA-B*08:01) of 1990 nM and a Kd (HLA-B*15:01 [3]; [11]) of 1.2 nM.
With RQIQVHAEQ the IC50 (HLA-B*15:01 [2]; [10]) was 21600 nM.
KSINVEYRF showed an IC50 (HLA-A*02:01 [4]; [9]) of 3450 nM, an IC50 (HLA-A*11:01) of no less than 170000 nM and an IC50 (HLA-A*24:02; [9]) of 643 nM. The IC50 (HLA-B*15:01 [2]; [9]) was no less than 98400 nM and the Kd (HLA-A*32:01) was 1.53 nM.
In the case of ALIAVLTGGV, the Kd (HLA-A*02:01 [1]; [13]) is reported as 7.67 nM, the Kd (HLA-A*02:03; [11]) is reported as 1.06 nM and the Kd (HLA-A*02:06; [11]) is reported as 20.3 nM. For the same sequence, the Kd (HLA-A*02:17; [13]) was 236 nM.
